T1: Recombinant human CD40L (human, UniProt P29965 108-261, limits assumed)
T1 construct: also called CD40 ligand
T1 sequence (looked up): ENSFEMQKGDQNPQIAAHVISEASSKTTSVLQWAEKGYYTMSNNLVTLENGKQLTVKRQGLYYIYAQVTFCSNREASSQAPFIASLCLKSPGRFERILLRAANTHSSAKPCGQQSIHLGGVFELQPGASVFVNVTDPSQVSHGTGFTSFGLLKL

B1: DOM-15 (other)
VH: EVQLLESGGGLVQPGGSLRLSCAASGFTFEEYVMSWVRQAPGKGLEWVSTISPIGLTTYYADSVKGRFTISRDNSKNTLYLQMNSLRAEDTAVYYCAEFPLIILPDFDYWGQGTLVTVSS
notes: VH dAb
B2: DOM.97 (other)
VH: EVQLLESGGGLVQPGGSLRLSCAASGFTFEEYGMSWVRQAPGKGLEWVSTISPIGVTTYYADSVKGRFTISRDNSKNTLYLQMNSLRAEDTAVYYCAKNAYDRKSNFDYWGQGTLVTVSS
notes: VH dAb
B3: DOM.95 (other)
VH: EVQLLESGGGLVQPGGSLRLSCAASGFTFREYDMLWVRQAPGKGLEWVSTIVGDGNGTYYADSVKGRFTISRDNSKNTLYLQMNSLRAEDTAVYYCAKQDRQFDYWGQGTLVTVSS
notes: VH dAb
B4: DOM-11 (other)
VH: EVQLLESGGGLVQPGGSLRLSCAASGFTFGDYEMSWVRQAPGKGLEWVSGIDGEGSDTYYADSVKGRFTISRDNSKNTLYLQMNSLRAEDTAVYYCAKPGRSFDYWGQGTLVTVSS
notes: VH dAb
B5: DOM-84 (other)
VH: EVQLLESGGGLVQPGGSLRLSCAASGFTFRQYQMAWARQAPGKGLEWVSTIASDGVSTYYADSVKGRFTISRDNSKNTLYLQMNSLRAEDTAVYYCAKVGRDFDYWGQGTLVTVSS
notes: VH dAb
B6: DOM-28 (other)
VH: EVQLLESGGGLVQPGGSLRLSCAASGFTFGHYDMAWVRQAPGKGLEWVSTISDNGNGTYYADSVKGRFTISRDNSKNTLYLQMNSLRAEDTAVYYCAKPGRDFDYWGQGTLVTVSS
notes: VH dAb
B7: DOM-66 (other)
VH: EVQLLESGGGLVQPGGSLRLSCAASGFTFSDYEMLWVRQAPGKGLEWVSTITSEGHSTYYADSVKGRFTISRDNSKNTLYLQMNSLRAEDTAVYYCAKPGTSFDYWGQGTLVTVSS
notes: VH dAb
B8: DOM-42 (other)
VH: EVQLLESGGGLVQPGGSLRLSCAASGFTFGPYEMTWVRQAPGKGLEWVSSIVGDGLDTYYADSVKGRFTISRDNSKNTLYLQMNSLRAEDTAVYYCAKPDRVFDYWGQGTLVTVSS
notes: VH dAb
B9: DOM-23 (other)
VH: EVQLLESGGGLVQPGGSLRLSCAASGFTFGLYEMTWVRQAPGKGLEWVSSITGDGISTYYADSVKGRFTISRDNSRNTLYLQMNSLRAEDTAVYYCAKAGRKFDYWGQGTLVTVSS
notes: VH dAb
B10: DOM-57 (other)
VH: EVQLLESGGGLVQPGGSLRLSCAASGFTFSEYDMYWVRQAPGKGLEWVSWIDTDGGDTYYADSVKGRFTISRDNSKNTLYLQMNSLRAEDTAVYYCAKPGLKFDYWGQGTLVTVSS
notes: VH dAb
B11: DOM-74 (other)
VH: EVQLLESGGGLVQPGGSLRLSCAASGFTFSDYPMTWVRQAPGKGLEWVSTILSPGTETYYADSVKGRFTISRDNSKNTLYLQMNSLRAEDTAVYYCAKAEKDFDYWGQGTLVTVSS
notes: VH dAb
B12: DOM-43 (other)
VH: EVQLLESGGGLVQPGGSLRLSCAASGFTFASYEMAWVRQAPGKGLEWVSSIGSDGGPTYYADSVKGRFTISRDNSKNTLYLQMNSLRAEDSAVYYCAKPDRAFDYWGQGTLVTVSS
notes: VH dAb
B13: DOM-41 (other)
VH: EVQLLESGGGLVQPGGSLRLSCAASGFTFFEYEMTWVRQAPGKGLEWVSSIANDGSTTYYADSVKGRFTISRDNSKNTLYLQMNSLRAEDTAVYYCAKPDRQFDYWGQGTLVTVSS
notes: VH dAb
B14: DOM.129 (other)
VH: EVQLLESGGGLVQPGGSLRLSCAASGFTFPKYEMAWVRQAPGKGLEWVSSIDGDGKSTYYADSVKGRFTISRDNSKNTLYLQMNSLRAEDTAVYYCAKPDQFFDYWGQGTLVTVSS
notes: VH dAb
B15: DOM-68 (other)
VH: EVQLLESGGGLVQPGGSLRLSCAASGFTFKDYEMTWVRQAPGKGLEWVSSISSTGQSTYYADSVKGRFTISRDNSKNTLYLQMNSLRAEDTAVYYCAKPGNKFDYWGQGTLVTVSS
notes: VH dAb
B16: DOM-19 (other)
VH: EVQLLESGGGLVQPGGSLRLSCAASGFPFPQYQMAWVRQAPGKGLEWVSMITSDGLDTYYADSVKGRFTISRDNSKNTLYLQMNSLRAEDTAVYYCAKPEPLFDYWGQGTLVTVSS
notes: VH dAb
B17: DOM-25 (other)
VH: EVQLLESGGGLVQPGGSLRLSCAASGFTFDNYEMTWVRQAPGKGLEWVSTITSQGTSTYYADSVKGRFTISRDNSKNTLYLQMNSLRAEDTAVYYCAKPDRSFDYWGQGTLVTVSS
notes: VH dAb
B18: DOM-58 (other)
VH: EVQLLESGGGLVQPGGSLRLSCAASGFTFEVYTMAWVRQAPGKGLEWVSTIDESGRDTYYADSVKGRFTISRDNSKNTLYLQMNSLRAEDTAVYYCAKPGVWFDYWGQGTLVTVSS
notes: VH dAb
B19: DOM-22 (other)
VH: EVQLLESGGGLVQPGGSLRLSCAASGFTFHNYEMSWVRQAPGKGLEWVSSISSGGSSTYYADSVKGRFTISRDNSKNTLYLQMNSLRAEDTAVYYCAKPGVKFDYWGQGTLVTVSS
notes: VH dAb
B20: DOM-80 (other)
VH: EVQLLESGGGLVQPGGSLRLSCAASGFTFGRYQMAWVRQAPGKGLEWVSSISSDGGGTYYADSVKGRFTISRDNSKNTLYLQMNSLRAEDTAVYYCAKPSRRFDYWGQGTLVTVSS
notes: VH dAb
B21: DOM-26 (other)
VH: EVQLLESGGGLVQPGGSLRLSCAASGFTFRSYEMTWVRQAPGKGLEWVSSITSDGGTTYYADSVKGRFTISRDNSKNTLYLQMNSLRAEDTAVYYCAKPDKTFDYWGQGTLVTVSS
notes: VH dAb
B22: DOM.131 (other)
VH: EVQLLESGGGLVQPGGSLRLSCAASGFTFGEYEMVWVRQAPGKGLEWVSSITSDGLSTYYADSVKGRFTISRDNSKNTLYLQMNSLRAEDTAVYYCAKPGIRFDYWGQGTLVTVSS
notes: VH dAb
B23: DOM.130 (other)
VH: EVQLLESGGGLVQPGGSLRLSCTASGFTFAGYQMSWVRQAPGKGLEWVSSITNEGVSTYYADSVKGRFTISRDNSKNTLYLQMNSLRAEDTAVYYCAKPGKYFDYWGQGTLVTVSS
notes: VH dAb
B24: DOM-83 (other)
VH: EVQLLESGGGLVQPGGSLRLSCAASGFTFALYQMAWVRQAPGKGLEWVSSIDSSGSDTYYADSVKGRFTISRDNSKNTLYLQMNSLRAEDTAVYYCAKPERDFDYWGQGTLVTVSS
notes: VH dAb
B25: DOM-73 (other)
VH: EVQLLESGGGLVQPGGSLRLSCAASGFTFSKYDMSWVRQAPGKGLEWVSTILEDGLTTYYADSVKGRFTISRDNSKNTLYLQMNSLRAEDTAVYYCAKPGRLFDYWGQGTLVTVSS
notes: VH dAb
B26: DOM-29 (other)
VH: EVQLLESGGGLVQPGGSLRLSCAASGFTFGRYQMAWVRQAPGKGLEWVSSISSDGGGTYYADSVKGRFTISRDNSKNTLYLQMNSLRAEDTAVYYCAKPGRAFDYWGQGTLVTVSS
notes: VH dAb
B27: DOM.128 (other)
VH: EVQLLESGGGLVQPGGSLRLSCAASGFTFERYQMAWVRQAPGKGLEWVSTISSDGGGTYYADSVKGRFTISRDNSKNTLYLQMNSLRAEDTAVYYCAKPGTVFDYWGQGTLVTVSS
notes: VH dAb
B28: DOM-67 (other)
VH: EVQLLESGGGLVQPGGSLRLSCAASGFTFSDYEMSWVRQAPGKGLEWVSTIDSDGSFTYYADSVKGRFTISRDNSKNTLYLQMNSLRAEDTAVYYCAKPGVKFDYWGQGTLVTVSS
notes: VH dAb
B29: DOM-14 (other)
VH: EVQLLESGGGLVQPGGSLRLSCAASGFTFWSYDMTWVRQAPGKGLEWVSSIMASGDDTYYADSVKGRFTISRDNSKNTLYLQMNSLRAEDTAVYYCAKWDRDFDYWGQGTLVTVSS
notes: VH dAb
B30: DOM-65 (other)
VH: EVQLLESGGGLVQPGGSLRLSCAASGFTFNEYEMTWVRQAPGKGLEWVSTITSEGSGTYYADSVKGRFTISRDNSKNTLYLQMNSLRAEDTAVYYCAKPNGKFDYWGQGTLVTVSS
notes: VH dAb
B31: DOM-78 (other)
VH: EVQLLESGGGLVQPGGSLRLSCAASGFTFERYQMAWVRQAPGKGLEWVSTISSDGGGTYYADSVKGRFTISRDNSKNTLYLQMNSLRAEDTAVYYCAKPGHRFDYWGQGTLVTVSS
notes: VH dAb
B32: DOM.98 (other)
VH: EVQLLESGGGLVQPGGSLRLSCAASGFTFDRYVMVWVRQAPGKDLEWVSGITPSGRRTYYADSVKGRFTISRDNSKDTLYLQMNSLRAEDTAVYYCAKVLGRHFDPLLPSFDYWGQGTLVTVSS
notes: VH dAb

The binders below were run against T1, Recombinant human CD40L (assay: CD40L/CD40-Fc receptor binding assay;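 further: plate assay with coated human CD40-Fc, bound ligand detected via HRP anti-biotin antibody and TMB, OD at 450 nm, lower signal indicates stronger inhibition by dAb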).

Binding result, binds:
B1
B2
B3
B4
B5
B6
B7
B8
B9
B10
B11
B12
B13
B14
B15
B16
B17
B18
B19
B20
B21
B22
B23
B24
B25
B26
B27
B28
B29
B30
B31
B32

From patent US20090297524A1 (DOMANTIS, published 2009)
